Article PMC10319729 (Scientific Reports, 2023)

Target: T1, LGR4 (HA-LGR4) over-expressed on HEK293 cells (UniProt Q9BXB1 25-951)
T1 construct: Plasmid and cell line described in earlier work; also called HEK293-LGR4; full-length LGR4; source: HEK293 cells over-expressing the receptor (HEK293-LGR4), on cells
Assay: whole-cell binding, fluorescence plate reader; His-tagged ligand in 3x serial dilution on cells in 96-well plates, on ice 1 h, washed, fixed with 4.2% paraformaldehyde, Alexa488-labeled anti-His antibody; half-maximum binding (KD) from a three-parameter dose-response fit
Conditions: one partner purified

B1: R2FuTSP-His (RSPO2 furin domain with TSP domain, His-tagged) (domain or fragment, UniProt Q6UXX9 22-205, looked up)
chain: QGNRWRRSKRASYVSNPICKGCLSCSKDNGCSRCQQKLFFFLRREGMRQYGECLHSCPSGYYGHRAPDMNRCARCRIENCDSCFSKDFCTKCKVGFYLHRGRCFDECPDGFAPLEETMECVEGCEVGHWSEWGTCSRNNRTCGFKWGLETRTRQIVKKPVKDTILCPTIAESRRCKMTMRHCPG
notes: R-spondin 2 (RSPO2), furin domain with the thrombospondin-like (TSP) domain; source: bought: R&D Systems
With B1 the Kd was 2.2 ± 0.3 nM.
